Measured values from US20150098945A1 (Daiichi Sankyo, published 2015).

T1: mouse ROBO4 (pCI-mROBO4-transfected HEK293 cells) (mouse, UniProt Q8C310 28-1012)
T1 sequence: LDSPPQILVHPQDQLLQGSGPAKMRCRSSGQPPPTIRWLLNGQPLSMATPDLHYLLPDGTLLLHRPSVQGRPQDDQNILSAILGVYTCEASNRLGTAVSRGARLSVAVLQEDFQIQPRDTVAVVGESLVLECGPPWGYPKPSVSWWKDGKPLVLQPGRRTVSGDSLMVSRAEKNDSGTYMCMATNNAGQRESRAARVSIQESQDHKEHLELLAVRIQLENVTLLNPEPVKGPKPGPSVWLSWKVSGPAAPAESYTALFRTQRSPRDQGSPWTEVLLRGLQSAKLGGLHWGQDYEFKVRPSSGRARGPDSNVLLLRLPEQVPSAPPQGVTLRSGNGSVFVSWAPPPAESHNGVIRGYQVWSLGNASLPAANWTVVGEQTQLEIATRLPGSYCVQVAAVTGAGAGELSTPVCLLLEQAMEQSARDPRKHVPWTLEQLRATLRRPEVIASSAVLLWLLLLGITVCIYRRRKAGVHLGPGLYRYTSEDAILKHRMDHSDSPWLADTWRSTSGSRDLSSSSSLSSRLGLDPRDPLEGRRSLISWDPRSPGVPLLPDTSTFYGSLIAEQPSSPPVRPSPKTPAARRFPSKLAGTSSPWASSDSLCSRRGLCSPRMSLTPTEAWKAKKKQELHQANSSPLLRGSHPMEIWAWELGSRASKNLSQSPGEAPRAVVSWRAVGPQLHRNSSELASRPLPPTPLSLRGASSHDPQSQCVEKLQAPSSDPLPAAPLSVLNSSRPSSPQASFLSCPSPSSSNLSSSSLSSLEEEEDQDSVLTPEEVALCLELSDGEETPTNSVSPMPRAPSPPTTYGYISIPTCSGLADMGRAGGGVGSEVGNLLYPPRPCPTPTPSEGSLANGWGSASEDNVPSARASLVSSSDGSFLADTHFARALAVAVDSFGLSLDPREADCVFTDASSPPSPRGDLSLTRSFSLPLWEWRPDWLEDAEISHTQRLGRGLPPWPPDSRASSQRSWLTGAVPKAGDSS

T2: N-terminal FLAG-tagged cynomolgus monkey ROBO4, cynoROBO4-2 (pCI-FLAG-cynoROBO4-2) (cynomolgus monkey, UniProt Q8WZ75 28-1007 (human entry))
T2 chain: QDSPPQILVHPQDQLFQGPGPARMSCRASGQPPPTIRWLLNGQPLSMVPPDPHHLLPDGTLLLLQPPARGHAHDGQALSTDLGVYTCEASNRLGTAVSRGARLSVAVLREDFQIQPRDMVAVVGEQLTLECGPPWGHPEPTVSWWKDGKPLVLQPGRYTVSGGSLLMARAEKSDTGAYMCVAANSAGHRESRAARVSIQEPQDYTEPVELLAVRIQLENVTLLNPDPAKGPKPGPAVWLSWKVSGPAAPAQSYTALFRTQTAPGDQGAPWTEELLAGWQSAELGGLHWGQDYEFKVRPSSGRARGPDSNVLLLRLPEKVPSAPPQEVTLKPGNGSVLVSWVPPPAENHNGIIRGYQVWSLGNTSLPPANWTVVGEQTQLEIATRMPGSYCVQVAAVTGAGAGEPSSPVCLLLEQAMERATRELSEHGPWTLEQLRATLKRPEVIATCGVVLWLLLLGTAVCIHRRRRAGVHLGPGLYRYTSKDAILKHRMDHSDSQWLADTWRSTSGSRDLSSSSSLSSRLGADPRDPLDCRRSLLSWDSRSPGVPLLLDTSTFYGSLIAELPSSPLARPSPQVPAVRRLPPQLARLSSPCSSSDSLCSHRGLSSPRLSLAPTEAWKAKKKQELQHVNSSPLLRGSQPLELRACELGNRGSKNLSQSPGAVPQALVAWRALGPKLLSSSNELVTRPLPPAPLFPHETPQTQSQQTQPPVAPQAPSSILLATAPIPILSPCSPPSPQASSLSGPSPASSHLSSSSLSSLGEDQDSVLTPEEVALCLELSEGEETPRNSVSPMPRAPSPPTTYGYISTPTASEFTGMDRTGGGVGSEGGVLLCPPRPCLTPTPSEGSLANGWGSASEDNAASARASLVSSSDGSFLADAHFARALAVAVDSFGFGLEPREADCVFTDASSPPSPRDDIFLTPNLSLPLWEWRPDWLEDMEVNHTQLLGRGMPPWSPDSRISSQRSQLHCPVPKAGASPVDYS


Experiments:
[1] = biological target: T1, mouse ROBO4 (pCI-mROBO4-transfected …); experiment: flow cytometry, HEK293 cells transfected with pCI-mROBO4, anti-mouse IgG FITC; control histogram IgG (Mouse IgG2a)
Description: HEK293 cells were inoculated at a concentration of 1.5×10⁶ cells/dish to a 60-mm dish (manufactured by Corning Inc.) and cultured overnight in a DMEM medium containing 10% FBS at 37° C. under 5% CO₂ conditions. On the next day, the HEK293 cells were transfected with pCI-hROBO4, pCI-mROBO4, pCI-raROBO4, pCI-FLAG-cynoROBO4-1, pCI-FLAG-cynoROBO4-2, pCI-hROBO1, pCI-hROBO2, or pCI-hROBO3 using FuGENE6 Transfection Reagent and further cultured overnight at 37° C. under 5% CO₂ conditions. On the next day, the expression vector-transfected cells were treated with TrypLE Express (manufactured by Life Technologies Corp.), washed with PBS containing 5% FBS, and then suspended in PBS containing 5% FBS. The obtained cell suspension was used in flow cytometry analysis.
Each cell suspension prepared in 4)-3-1 was centrifuged, and the supernatant was removed. Then, MAb1 or a negative control Mouse IgG2a was added at a concentration of 10 μg/mL to 2×10⁵ expression vector-transfected cells, and the resulting suspension was left standing at 4° C. for 1 hour. […] Data was analyzed using Flowjo. The histogram of FITC fluorescence intensity was prepared. The antibody was determined to bind in a cross-species manner when the histogram of MAb1 was shifted to a stronger fluorescence intensity region compared with the histogram of the negative control Mouse IgG2a.

[2] = biological target: T2, N-terminal FLAG-tagged cynomolgus …; experiment: flow cytometry (FC500), HEK293 cells transfected with pCI-FLAG-cynoROBO4-2, antibody at 10 µg/mL, FITC goat anti-human IgG Fc; control histogram IgG (human IgG)

binding result [1] | binding result [2] | Binder
no binding (tested: 10 µg/mL) | – | anti-ROBO4 mouse monoclonal antibody MAb1 (antibody, mouse IgG1, V domains shown, Mouse IgG1 (gamma1), kappa light chain, purified from hybridoma supernatant; also called parent antibody MAb1) VH: EVQLVESGGGLVKPGGSLKLSCAASGFTFSTYAMSWVRQTPEKRLEWVATISNGGTYTYYPDSVKGRFTISRDNAENTLYLQMSSLRSEDTAMYFCARLIYYDYLDYWGHGTTLTVSS VL: DAVMTQTPLSLPVSLGDQASISCRSSQSLENSNGNTYLNWYFQKPGQSPQLLIYRVSNRFSGVLDRFSGSGSGTDFTLKISRVEAEDFGVYFCLQVTHVPWTFGGGTKLEIKR
– | binds | humanized MAb1 antibody H-2143 (antibody, human IgG2, kappa, V domains shown, Human IgG2 / kappa constant regions; also called hMAb1-H4-type heavy chain + hMAb1-L2-type light chain) VH: EVQLVESGGGLVQPGGSLRLSCAASGFTFSTYAMSWVRQAPGKRLEWVATISQGGTYTYYPDSVKGRFTISRDNAKNTLYLQMNSLRAEDTAVYYCARLIYYDYLDYWGQGTLVTVSS VL: DIVMTQSPLSLPVTLGEPASISCRSSQSLENENKNLYLNWYLQKPGQSPQLLIYRVSNRFSGVPDRFSGSGSGTDFTLKISRVEAEDVGVYYCLQVTHVPWTFGPGTKVDIKR
